# Measured values: the RNAGym collection of RNA variant scans (doi:10.7554/elife.90254)
# B1: OR4K15 (parent)
# chain: GUUAACGGUCAUAGGCCAUGGAAACUAGGAGCACCAUUUCGCUGCCAGUGAAGAAAUGAACAAAGAAAAUCUGGGCCAGGCAGGCAUCAAAAGAAAUAGUCUUGCGCUCAACCAGAAAGUCUGUAAUCAUUUUAAGGGUA
# Variants of: B1
# Assay: self-cleavage, relative activity (ratio to wild type); higher = more cleavage; in vitro, sequencing; the parent is a self-cleaving ribozyme
row,Variant,self-cleavage
1,GUUAACGGUCAUAGGCCAUGGAAACUAGGAGCACCAUUUCGCUGCCAGUGAAGAGAUGAACAAAGAAAAUCUGGGCCAGGCAGGCGUCAAAAGAAAUAGUCUUGCGCUCAACCAGAAAGUCUGUAAUCAUUUUAAGGGUA [A55G A86G],1.17
2,GUUAACGGUCAUAGGCCAUGGAAACUAGGAGCACCAUUUCGCUGCCAGUGAAGAGAUGAACAAAGAAAAUCUGGGCCAGGCAGGCAUCAAAAGAAAUAGUCUUGCGCUCAACCGGAAAGUCUGUAAUCAUUUUAAGGGUA [A55G A114G],0.32
3,GUUAACGGUCAUAGGCCAUGGAAACUAGGAGCACCAUUUCGCUGCCAGUGAAGAGAUGAACAAAGAAAAUCUGGGCCAGGCAGGUAUCAAAAGAAAUAGUCUUGCGCUCAACCAGAAAGUCUGUAAUCAUUUUAAGGGUA [A55G C85U],1.27
4,GUUAACGGUCAUAGGCCAUGGAAACUAGGAGCACCAUUUCGCUGCCAGUGAAGAGAUGAACAAAGAAAAUCUGGGCCAGGCAGGCAUCUAAAGAAAUAGUCUUGCGCUCAACCAGAAAGUCUGUAAUCAUUUUAAGGGUA [A55G A89U],1.55
5,GUUAACGGUCAUAGGCCAUGGAAACUAGGAGCACCAUUUCGCUGCCAGUGAAGAGAUGAACAAAGAAAAUCUGGGCCAGGCAGGCAUCGAAAGAAAUAGUCUUGCGCUCAACCAGAAAGUCUGUAAUCAUUUUAAGGGUA [A55G A89G],0.59
6,GUUAACGGUCAUAGGCCAUGGAAACUAGGAGCACCAUUUCGCUGCCAGUGAAGAGAUGAACAAAGAAAAUCUGGGCCAGGCAGGCAUCAAAAGAAAUAGUCUUGCGCUUAACCAGAAAGUCUGUAAUCAUUUUAAGGGUA [A55G C109U],0.82
7,GUUAACGGUCAUAGGCCAUGGAAACUAGGAGCACCAUUUCGCUGCCAGUGAAGAGAUGAACAAAGAAAAUCUGGGCCAGGCAGGCAUCAAGAGAAAUAGUCUUGCGCUCAACCAGAAAGUCUGUAAUCAUUUUAAGGGUA [A55G A91G],0.98
8,GUUAACGGUCAUAGGCCAUGGAAACUAGGAGCACCAUUUCGCUGCCAGUGAAGAGAUGAACAAAGAAAAUCUGGGCCAGGCAGGCAUCAAAAGAAAUAGUCUUGCGCUCCACCAGAAAGUCUGUAAUCAUUUUAAGGGUA [A55G A110C],0.2
9,GUUAACGGUCAUAGGCCAUGGAAACUAGGAGCACCAUUUCGCUGCCAGUGAAGAGAUGAACAAAGAAAAUCUGGGCUAGGCAGGCAUCAAAAGAAAUAGUCUUGCGCUCAACCAGAAAGUCUGUAAUCAUUUUAAGGGUA [A55G C77U],1.41
10,GUUAACGGUCAUAGGCCAUGGAAACUAGGAGCACCAUUUCGCUGCCAGUGAAGAGAUGAACAAAGAAAAUCUGGGCCAGGCAGGCAUCAAAAGAAAUAGUCUUGCGCUCAACCAGAAAGUCUGUAAUCUUUUUAAGGGUA [A55G A129U],1.43
11,GUUAACGGUCAUAGGCCAUGGAAACUAGGAGCACCAUUUCGCUGCCAGUGAAGAGAUGAACAAAGAAAAUCUGGGCCAGGCAGGCAUCAAAAGACAUAGUCUUGCGCUCAACCAGAAAGUCUGUAAUCAUUUUAAGGGUA [A55G A95C],1.02
12,GUUAACGGUCAUAGGCCAUGGAAACUAGGAGCACCAUUUCGCUGCCAGUGAAGAGAUGAACAAAGAAAAUCUGGGCCAGGCAGGCAUCAAAAGAAAUAGUCUUGCGCUCAACCAGAAAGUCUGUAAUCAUUUUGAGGGUA [A55G A134G],1.23
13,GUUAACGGUCAUAGGCCAUGGAAACUAGGAGCACCAUUUCGCUGCCAGUGAAGAGAUGAACAAAGAAAAUCUGGGCCAGGCAGGCAUCAAAAGAAUUAGUCUUGCGCUCAACCAGAAAGUCUGUAAUCAUUUUAAGGGUA [A55G A96U],1.11
14,GUUAACGGUCAUAGGCCAUGGAAACUAGGAGCACCAUUUCGCUGCCAGUGAAGAGAUGAACAAAGAAAGUCUGGGCCAGGCAGGCAUCAAAAGAAAUAGUCUUGCGCUCAACCAGAAAGUCUGUAAUCAUUUUAAGGGUA [A55G A69G],0.78
15,GUUAACGGUCAUAGGCCAUGGAAACUAGGAGCACCAUUUCGCUGCCAGUGAAGAGAUGAACAAAGAAAUUCUGGGCCAGGCAGGCAUCAAAAGAAAUAGUCUUGCGCUCAACCAGAAAGUCUGUAAUCAUUUUAAGGGUA [A55G A69U],0.23
16,GUUAACGGUCAUAGGCCAUGGAAACUAGGAGCACCAUUUCGCUGCCAGUGAAGACAAGAACAAAGAAAAUCUGGGCCAGGCAGGCAUCAAAAGAAAUAGUCUUGCGCUCAACCAGAAAGUCUGUAAUCAUUUUAAGGGUA [A55C U57A],1.84
17,GUUAACGGUCAUAGGCCAUGGAAACUAGGAGCACCAUUUCGCUGCCAGUGAAGAGAUGAACAAAGAAAAUCUGGGCCAGGCAGGCAUCAUAAGAAAUAGUCUUGCGCUCAACCAGAAAGUCUGUAAUCAUUUUAAGGGUA [A55G A90U],2.14
18,GUUAACGGUCAUAGGCCAUGGAAACUAGGAGCACCAUUUCGCUGCCAGUGAAGAGAUGAACAAAGAAAAUCUGGGCCAGGCAGGCAUCAGAAGAAAUAGUCUUGCGCUCAACCAGAAAGUCUGUAAUCAUUUUAAGGGUA [A55G A90G],0.76
19,GUUAACGGUCAUAGGCCAUGGAAACUAGGAGCACCAUUUCGCUGCCAGUGAAGAGAUGAACAAAGAAAAUCUGGGACAGGCAGGCAUCAAAAGAAAUAGUCUUGCGCUCAACCAGAAAGUCUGUAAUCAUUUUAAGGGUA [A55G C76A],0.55
20,GUUAACGGUCAUAGGCCAUGGAAACUAGGAGCACCAUUUCGCUGCCAGUGAAGAGAUGAACACAGAAAAUCUGGGCCAGGCAGGCAUCAAAAGAAAUAGUCUUGCGCUCAACCAGAAAGUCUGUAAUCAUUUUAAGGGUA [A55G A63C],0.12
21,GUUAACGGUCAUAGGCCAUGGAAACUAGGAGCACCAUUUCGCUGCCAGUGAAGAGAUGAACUAAGAAAAUCUGGGCCAGGCAGGCAUCAAAAGAAAUAGUCUUGCGCUCAACCAGAAAGUCUGUAAUCAUUUUAAGGGUA [A55G A62U],1.41

row,Variant,self-cleavage
1,GUUAACGGUCAUAGGCCAUGGAAACUAGGAGCACCAUUUCGCUGCCAGUGAAGAGAUGAACAAAGAAAAUCUGGGCCAGGCAGGCAUCAAAUGAAAUAGUCUUGCGCUCAACCAGAAAGUCUGUAAUCAUUUUAAGGGUA [A55G A92U],1.65
2,GUUAACGGUCAUAGGCCAUGGAAACUAGGAGCACCAUUUCGCUGCCAGUGAAGACAUGAACAAAGAAAAUCUGGGCCAGGCAGGCAUCAAAAGAAAUAGUCUAGCGCUCAACCAGAAAGUCUGUAAUCAUUUUAAGGGUA [A55C U103A],0.38
3,GUUAACGGUCAUAGGCCAUGGAAACUAGGAGCACCAUUUCGCUGCCAGUGAAGAGAUGAACAAAGGAAAUCUGGGCCAGGCAGGCAUCAAAAGAAAUAGUCUUGCGCUCAACCAGAAAGUCUGUAAUCAUUUUAAGGGUA [A55G A66G],1.4
4,GUUAACGGUCAUAGGCCAUGGAAACUAGGAGCACCAUUUCGCUGCCAGUGAAGAGAUGAACAAAGAAAAUCUGGGCCAGGCAGGCAUCAAAAGAAAUAGUCUUGCGCUCAACCAGAGAGUCUGUAAUCAUUUUAAGGGUA [A55G A117G],0.76
5,GUUAACGGUCAUAGGCCAUGGAAACUAGGAGCACCAUUUCGCUGCCAGUGAAGAGAUGAACAAAGAAAAUCUGGGCCAGGCAGGCAUCAAAAGAAAUAGUCUUGCGCUCAACCAGAAAGUCUGUAAUCAUUUUAGGGGUA [A55G A135G],1.57
6,GUUAACGGUCAUAGGCCAUGGAAACUAGGAGCACCAUUUCGCUGCCAGUGAAGAGAUGAACAAAGAAAAUCUGGGCCAGGCAGGCAUCAAAAGAAAUAGUCUUGCGCUCAACCAGAAAGUCUGUAGUCAUUUUAAGGGUA [A55G A126G],0.33
7,GUUAACGGUCAUAGGCCAUGGAAACUAGGAGCACCAUUUCGCUGCCAGUGAAGAGAUGAACAAAGAAAAUCUGGGCCAGGCAGGCAUCAAAAGAAAUAGUCUUGCGCUCAACCAGAAAGUCUGUAUUCAUUUUAAGGGUA [A55G A126U],0.86
8,GUUAACGGUCAUAGGCCAUGGAAACUAGGAGCACCAUUUCGCUGCCAGUGAAGAGAUGUACAAAGAAAAUCUGGGCCAGGCAGGCAUCAAAAGAAAUAGUCUUGCGCUCAACCAGAAAGUCUGUAAUCAUUUUAAGGGUA [A55G A59U],1.13
9,GUUAACGGUCAUAGGCCAUGGAAACUAGGAGCACCAUUUCGCUGCCAGUGAAGAGAUGAACAAAGAAAAUCUGGGCCAGGCAGGCAUCAAAAGCAAUAGUCUUGCGCUCAACCAGAAAGUCUGUAAUCAUUUUAAGGGUA [A55G A94C],1.34
10,GUUAACGGUCAUAGGCCAUGGAAACUAGGAGCACCAUUUCGCUGCCAGUGAAGAGAUGAACAAAGAAAAUCUGGGCCAGGCAGGCAUCAAAAGAAAUCGUCUUGCGCUCAACCAGAAAGUCUGUAAUCAUUUUAAGGGUA [A55G A98C],1.25
11,GUUAACGGUCAUAGGCCAUGGAAACUAGGAGCACCAUUUCGCUGCCAGUGAAGAGAUGAACAAAGAAAAUCUGGGCCAGGCUGGCAUCAAAAGAAAUAGUCUUGCGCUCAACCAGAAAGUCUGUAAUCAUUUUAAGGGUA [A55G A82U],0.22
12,GUUAACGGUCAUAGGCCAUGGAAACUAGGAGCACCAUUUCGCUGCCAGUGAAGAGAUGAACAAAGAAAAUCUGGGCCAGGCGGGCAUCAAAAGAAAUAGUCUUGCGCUCAACCAGAAAGUCUGUAAUCAUUUUAAGGGUA [A55G A82G],0.83
13,GUUAACGGUCAUAGGCCAUGGAAACUAGGAGCACCAUUUCGCUGCCAGUGAAGACAUGAACAAAGAAAAUCUGGGCCAAGCAGGCAUCAAAAGAAAUAGUCUUGCGCUCAACCAGAAAGUCUGUAAUCAUUUUAAGGGUA [A55C G79A],0.49
14,GUUAACGGUCAUAGGCCAUGGAAACUAGGAGCACCAUUUCGCUGCCAGUGAAGAGAUGAACAAAGAAAAUCUGGGCCAGGCAGGCAUCAAAAGAAAUAGUCUUGCGCUCAACCAGAAAGUCUGUAAUCAUUUUAAGGGUA [A55G],1.06
15,GUUAACGGUCAUAGGCCAUGGAAACUAGGAGCACCAUUUCGCUGCCAGUGAAGAGAUGAACAAGGAAAAUCUGGGCCAGGCAGGCAUCAAAAGAAAUAGUCUUGCGCUCAACCAGAAAGUCUGUAAUCAUUUUAAGGGUA [A55G A64G],0.88
16,GUUAACGGUCAUAGGCCAUGGAAACUAGGAGCACCAUUUCGCUGCCAGUGAAGAGAUGAACAAUGAAAAUCUGGGCCAGGCAGGCAUCAAAAGAAAUAGUCUUGCGCUCAACCAGAAAGUCUGUAAUCAUUUUAAGGGUA [A55G A64U],2.41
17,GUUAACGGUCAUAGGCCAUGGAAACUAGGAGCACCAUUUCGCUGCCAGUGAAGACAUGAACAAAGAAAAUCUGGGCCAGGCAGGCAUCAAAAGAAAUAGUCUUGCACUCAACCAGAAAGUCUGUAAUCAUUUUAAGGGUA [A55C G106A],0.02
18,GUUAACGGUCAUAGGCCAUGGAAACUAGGAGCACCAUUUCGCUGCCAGUGAAGAGAUGAACAAAGAAAAUCUGGGCCAGGCAGGCAUCAAAAGAAAUAGUCUUGCGCUCAACCAGAAAGUCUGUGAUCAUUUUAAGGGUA [A55G A125G],0.45
19,GUUAACGGUCAUAGGCCAUGGAAACUAGGAGCACCAUUUCGCUGCCAGUGAAGAGAUGAACAAAGAAAAUCUGGGCCAGGCAGGCAUCAAAAGAAAUAGUCUUGCGCUCAGCCAGAAAGUCUGUAAUCAUUUUAAGGGUA [A55G A111G],0.03
20,GUUAACGGUCAUAGGCCAUGGAAACUAGGAGCACCAUUUCGCUGCCAGUGAAGAGAUGAACAAAGAAAAUCUGGGCCAGGCAGGCAUCAAAAGAAAUAGUCUUGCGCUCAACCAGUAAGUCUGUAAUCAUUUUAAGGGUA [A55G A116U],0.27
